Legend:
[1] = molecular target: αE2 (isolated E2 DNA-recognition helix peptide) (Human papillomavirus type 16?) (UniProt P06790); assay: EMSA
[2] = molecular target: αE2 (isolated E2 DNA-recognition helix peptide) (Human papillomavirus type 16?) (UniProt P06790); assay: DNA melting

Chain of UniProt P06790 (P06790 whole entry): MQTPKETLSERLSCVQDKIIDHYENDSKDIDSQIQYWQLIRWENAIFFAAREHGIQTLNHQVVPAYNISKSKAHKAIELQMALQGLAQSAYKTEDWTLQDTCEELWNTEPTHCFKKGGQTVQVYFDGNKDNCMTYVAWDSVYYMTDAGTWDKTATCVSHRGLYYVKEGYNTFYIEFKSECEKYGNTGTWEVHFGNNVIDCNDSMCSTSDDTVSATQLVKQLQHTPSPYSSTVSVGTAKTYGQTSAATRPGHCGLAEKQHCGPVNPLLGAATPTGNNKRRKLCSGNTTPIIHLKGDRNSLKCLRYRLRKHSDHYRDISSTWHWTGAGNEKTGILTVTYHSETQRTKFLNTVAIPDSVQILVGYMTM

Sequence | Kd [1] [µM] | binding signal [2]
ACATGGACCTGTCAAGTA (double strand) [Iset non E2-non Dst] | 50 | –
GTAGCACAAATCGGTTGA (double strand) [hemisite E2-Dst] | 6.3 | 2 C (ΔTm)

Reference: paper PMC3143144
